Measurements from patent US20120321699A1.

Legend:
Histone autoantigen [1] = assay: Athena assay, mAb 12.5 ug/ml; positive >50
SSA autoantigen [2] = assay: Athena assay, mAb 12.5 ug/ml; positive >50
RNP autoantigen [3] = assay: Athena assay, mAb 12.5 ug/ml; positive >50
Sm autoantigen [4] = assay: Athena assay, mAb 12.5 ug/ml; positive >50
centromere B autoantigen [5] = assay: Athena assay, mAb 12.5 ug/ml; positive >50
Scl 70 autoantigen [6] = assay: Athena assay, mAb 12.5 ug/ml; positive >50
Jo 1 autoantigen [7] = assay: Athena assay, mAb 12.5 ug/ml; positive >50
SSB autoantigen [8] = assay: Athena assay, mAb 12.5 ug/ml; positive >50
[9] = target: Influenza HA (Wisconsin) (influenza virus); assay: Luminex assay, antibody 50 µg/ml
[10] = target: HV00046 (902114 B2 140C) (HIV-1); assay: ELISA on monomeric envelope
CM 243 gp120 (HIV-1) = assay: ELISA on monomeric envelope
Histone autoantigen [11] = assay: Athena assay, mAb 50 ug/ml; positive >50
SSA autoantigen [12] = assay: Athena assay, mAb 50 ug/ml; positive >50
RNP autoantigen [13] = assay: Athena assay, mAb 50 ug/ml; positive >50
Sm autoantigen [14] = assay: Athena assay, mAb 50 ug/ml; positive >50
centromere B autoantigen [15] = assay: Athena assay, mAb 50 ug/ml; positive >50
Scl 70 autoantigen [16] = assay: Athena assay, mAb 50 ug/ml; positive >50
Jo 1 autoantigen [17] = assay: Athena assay, mAb 50 ug/ml; positive >50
SSB autoantigen [18] = assay: Athena assay, mAb 50 ug/ml; positive >50
Histone autoantigen [19] = assay: Athena assay, mAb 6.25 ug/ml; positive >50
SSA autoantigen [20] = assay: Athena assay, mAb 6.25 ug/ml; positive >50
RNP autoantigen [21] = assay: Athena assay, mAb 6.25 ug/ml; positive >50
Sm autoantigen [22] = assay: Athena assay, mAb 6.25 ug/ml; positive >50
centromere B autoantigen [23] = assay: Athena assay, mAb 6.25 ug/ml; positive >50
Scl 70 autoantigen [24] = assay: Athena assay, mAb 6.25 ug/ml; positive >50
Jo 1 autoantigen [25] = assay: Athena assay, mAb 6.25 ug/ml; positive >50
SSB autoantigen [26] = assay: Athena assay, mAb 6.25 ug/ml; positive >50
[27] = target: Env of HIV-1 clade B isolate 7165.18 (HIV-1); assay: cell-based or functional assay
[28] = target: Env of HIV-1 Q23.17.N160K (HIV-1); assay: cell-based or functional assay
[29] = target: Env of HIV-1 clade B isolate JRFL (virus) (HIV-1); assay: cell-based or functional assay
[30] = target: Env of HIV-1 JRCSF.N160K (HIV-1) (UniProt P20871); assay: cell-based or functional assay
[31] = target: Env of HIV-1 JRFL.N160K.E168K (HIV-1); assay: cell-based or functional assay
[32] = target: Env of HIV-1 7165.18.N160K (HIV-1); assay: cell-based or functional assay
[33] = target: Env of HIV-1 JRFL.E168K (HIV-1); assay: cell-based or functional assay
[34] = target: Env of HIV-1 clade A isolate Q23.17 (HIV-1); assay: cell-based or functional assay
Histone autoantigen [35] = assay: Athena assay, mAb 25 ug/ml; positive >50
SSA autoantigen [36] = assay: Athena assay, mAb 25 ug/ml; positive >50
RNP autoantigen [37] = assay: Athena assay, mAb 25 ug/ml; positive >50
Sm autoantigen [38] = assay: Athena assay, mAb 25 ug/ml; positive >50
centromere B autoantigen [39] = assay: Athena assay, mAb 25 ug/ml; positive >50
Scl 70 autoantigen [40] = assay: Athena assay, mAb 25 ug/ml; positive >50
Jo 1 autoantigen [41] = assay: Athena assay, mAb 25 ug/ml; positive >50
SSB autoantigen [42] = assay: Athena assay, mAb 25 ug/ml; positive >50
A244 gD- gp120 (HIV-1) = assay: SPR

CH01 (antibody)
Autoreactivity (Athena) (Histone autoantigen [1]): 13.5
Autoreactivity (Athena) (SSA autoantigen [2]): 5
Autoreactivity (Athena) (RNP autoantigen [3]): 4.5
Autoreactivity (Athena) (Sm autoantigen [4]): 3
Autoreactivity (Athena) (centromere B autoantigen [5]): 10
Autoreactivity (Athena) (Scl 70 autoantigen [6]): 2
Autoreactivity (Athena) (Jo 1 autoantigen [7]): 2
Autoreactivity (Athena) (SSB autoantigen [8]): 5
background substracted RFUs [9]: 0 RFU
EC50 [10]: 63.2 µM
EC50 (CM 243 gp120 (HIV-1)): 12.7 µM
Autoreactivity (Athena) (Histone autoantigen [11]): 26
Autoreactivity (Athena) (SSA autoantigen [12]): 8
Autoreactivity (Athena) (RNP autoantigen [13]): 8
Autoreactivity (Athena) (Sm autoantigen [14]): 4
Autoreactivity (Athena) (centromere B autoantigen [15]): 22
Autoreactivity (Athena) (Scl 70 autoantigen [16]): 4
Autoreactivity (Athena) (Jo 1 autoantigen [17]): 3.5
Autoreactivity (Athena) (SSB autoantigen [18]): 5.5
Autoreactivity (Athena) (Histone autoantigen [19]): 10
Autoreactivity (Athena) (SSA autoantigen [20]): 5.5
Autoreactivity (Athena) (RNP autoantigen [21]): 4
Autoreactivity (Athena) (Sm autoantigen [22]): 2.5
Autoreactivity (Athena) (centromere B autoantigen [23]): 7
Autoreactivity (Athena) (Scl 70 autoantigen [24]): 1.5
Autoreactivity (Athena) (Jo 1 autoantigen [25]): 2
Autoreactivity (Athena) (SSB autoantigen [26]): 5.5
IC50 ug/ml (virus neutralization) [27]: 5.82 µg/mL
IC80 ug/ml (virus neutralization) [27]: > 50 µg/mL
IC50 ug/ml (virus neutralization) [28]: > 50 µg/mL
IC80 ug/ml (virus neutralization) [28]: > 50 µg/mL
IC50 ug/ml (virus neutralization) [29]: > 50 µg/mL
IC80 ug/ml (virus neutralization) [29]: > 50 µg/mL
IC50 ug/ml (virus neutralization) [30]: > 50 µg/mL
IC80 ug/ml (virus neutralization) [30]: > 50 µg/mL
IC50 ug/ml (virus neutralization) [31]: > 50 µg/mL
IC80 ug/ml (virus neutralization) [31]: > 50 µg/mL
IC50 ug/ml (virus neutralization) [32]: > 50 µg/mL
IC80 ug/ml (virus neutralization) [32]: > 50 µg/mL
IC50 ug/ml (virus neutralization) [33]: 0.044 µg/mL
IC80 ug/ml (virus neutralization) [33]: 0.382 µg/mL
IC50 ug/ml (virus neutralization) [34]: 0.014 µg/mL
IC80 ug/ml (virus neutralization) [34]: 0.035 µg/mL
Autoreactivity (Athena) (Histone autoantigen [35]): 17.5
Autoreactivity (Athena) (SSA autoantigen [36]): 6.5
Autoreactivity (Athena) (RNP autoantigen [37]): 5.5
Autoreactivity (Athena) (Sm autoantigen [38]): 4
Autoreactivity (Athena) (centromere B autoantigen [39]): 14
Autoreactivity (Athena) (Scl 70 autoantigen [40]): 3
Autoreactivity (Athena) (Jo 1 autoantigen [41]): 2.5
Autoreactivity (Athena) (SSB autoantigen [42]): 5.5
Kd (A244 gD- gp120 (HIV-1)): 0.34 µM
